Source: patent publication EP4772193A1 (Teijin Pharma Limited, dated 2026)
Read-outs that look alike come from different tables or passages of the source.

T1: human gpNMB (Human Osteoactivin, His-tag, AcroBioSystems) (human, UniProt Q14956-2 23-486, limits assumed)
T1 sequence (looked up): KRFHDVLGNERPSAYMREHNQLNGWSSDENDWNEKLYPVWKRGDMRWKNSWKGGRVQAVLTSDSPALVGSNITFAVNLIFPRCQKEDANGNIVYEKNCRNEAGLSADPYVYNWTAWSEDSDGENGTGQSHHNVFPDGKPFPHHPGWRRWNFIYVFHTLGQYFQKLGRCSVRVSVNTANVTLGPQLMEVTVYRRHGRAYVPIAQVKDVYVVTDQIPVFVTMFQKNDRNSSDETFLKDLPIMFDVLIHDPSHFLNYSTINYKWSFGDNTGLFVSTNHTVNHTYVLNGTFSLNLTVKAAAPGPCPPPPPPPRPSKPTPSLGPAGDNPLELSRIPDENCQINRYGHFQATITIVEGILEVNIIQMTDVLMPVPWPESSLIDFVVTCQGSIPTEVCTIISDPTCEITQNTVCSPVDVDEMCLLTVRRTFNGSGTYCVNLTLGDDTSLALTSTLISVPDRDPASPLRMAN

T2: recombinant human soluble gpNMB (recombinant human gpNMB-FLAG-His) (human, UniProt Q14956 23-498)
T2 sequence: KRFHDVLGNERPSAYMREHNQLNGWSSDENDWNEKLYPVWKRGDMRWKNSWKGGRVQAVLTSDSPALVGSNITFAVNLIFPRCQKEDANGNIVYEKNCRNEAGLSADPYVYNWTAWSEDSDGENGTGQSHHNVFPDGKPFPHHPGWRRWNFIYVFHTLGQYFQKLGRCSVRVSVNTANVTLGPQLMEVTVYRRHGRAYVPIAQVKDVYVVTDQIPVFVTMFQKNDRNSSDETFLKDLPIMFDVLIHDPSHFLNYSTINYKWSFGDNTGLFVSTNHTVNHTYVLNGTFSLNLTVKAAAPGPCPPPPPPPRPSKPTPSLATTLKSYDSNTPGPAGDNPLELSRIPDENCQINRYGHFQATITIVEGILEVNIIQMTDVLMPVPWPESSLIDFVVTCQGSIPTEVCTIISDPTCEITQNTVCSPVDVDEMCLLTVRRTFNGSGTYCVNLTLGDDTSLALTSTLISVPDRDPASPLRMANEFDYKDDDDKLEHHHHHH


Tests used:
[1] = molecular target: T1, human gpNMB (Human Osteoactivin, …); test: SPR Biacore 8K, antibody captured on protein A, gpNMB as analyte
[2] = molecular target: T2, recombinant human soluble gpNMB …; test: antigen ELISA
[3] = molecular target: T2, recombinant human soluble gpNMB …; test: antigen ELISA, vs hGPN06-1_H1L1
[4] = molecular target: T2, recombinant human soluble gpNMB …; test: antigen ELISA, vs hGPN18-2_H2L3
[5] = molecular target: T2, recombinant human soluble gpNMB …; test: antigen ELISA; remark: listed apart in the source

Binder | Kd [1] [nM] | koff [1] [s⁻¹] | kon [1] [M⁻¹ s⁻¹] | EC50 [2] [nM] | Relative binding activity [3] | also measured
hGPN18-5_H2L2 (antibody, V domains shown, humanized; also called hGPN18-5_VH2+VL2) VH: QVQLVQSGAEVKKPGASVKVSCKASGYTFTTYWMNWVRQAPGQGLEWIGAINPSNDYTEYNQKFKDRATMTADTSTSTVYMELSSLRSEDTAVYYCGRSYSPDYWGQGTTVTVSS VL: DIQMTQSPSSLSASVGDRVTITCKASQNVDNHVAWFQQKPGKAPKALIYSASYRYSGVPDRFSGSGSGTDFTLTISSLQPEDFATYFCQQYKSYPFTFGGGTKLEIK | 763 | 0.00403 | 5280 |  |  | 
hGPN18-5_H1L2 (antibody, V domains shown, humanized; also called hGPN18-5_VH1+VL2) VH: QVQLVQSGAEVKKPGASVKVSCKASGYTFTTYWMNWVRQAPGQGLEWIGAINPSNDYTEYNQKFKDRVTMTADTSTSTVYMELSSLRSEDTAVYYCGRSYSPDYWGQGTTVTVSS VL: DIQMTQSPSSLSASVGDRVTITCKASQNVDNHVAWFQQKPGKAPKALIYSASYRYSGVPDRFSGSGSGTDFTLTISSLQPEDFATYFCQQYKSYPFTFGGGTKLEIK | 423 | 0.00396 | 9380 |  |  | 
hGPN18-5_H2L3 (antibody, V domains shown, humanized; also called hGPN18-5_VH2+VL3; GPN18-5-VH2+VL3) VH: QVQLVQSGAEVKKPGASVKVSCKASGYTFTTYWMNWVRQAPGQGLEWIGAINPSNDYTEYNQKFKDRATMTADTSTSTVYMELSSLRSEDTAVYYCGRSYSPDYWGQGTTVTVSS VL: DIQMTQSPSSLSASVGDRVTITCKASQNVDNHVAWHQQKPGKAPKALIYSASYRYSGVPDRFTGSGSGTDFTLTISSLQPEDFADYFCQQYKSYPFTFGGGTKLEIK | 190 | 0.00148 | 7780 |  |  | 
hGPN06-1_H1L1 VH D52A (antibody, V domains shown) VH: QVQLVQSGAEVKKPGASVKVSCKASGYTFTDNWMGWVKQRPGQGLEWIGAIAPSDSFTNYNQNFKGRVTMTVDTSISTAYMELSRLRSDDSAVYFCTRSGYYGSPKLGGDYWGQGTLVTVSS VL: EIVLTQSPSSLSASVGDRVTITCSASSSISYMHWYQQKSGTAPKLLIYSTSNLASGVPSRFSGSGSGTDFTFTISSLQPEDAATYYCHQWNSYPCTFGGGTKLEIK |  |  |  | 2.79 | 0.51 | 
hGPN06-1_H1L1 VH G26A (antibody, V domains shown) VH: QVQLVQSGAEVKKPGASVKVSCKASAYTFTDNWMGWVKQRPGQGLEWIGAIDPSDSFTNYNQNFKGRVTMTVDTSISTAYMELSRLRSDDSAVYFCTRSGYYGSPKLGGDYWGQGTLVTVSS VL: EIVLTQSPSSLSASVGDRVTITCSASSSISYMHWYQQKSGTAPKLLIYSTSNLASGVPSRFSGSGSGTDFTFTISSLQPEDAATYYCHQWNSYPCTFGGGTKLEIK |  |  |  | 1.21 | 1.08 | 
hGPN06-1_H1L1 VH F57A (antibody, V domains shown) VH: QVQLVQSGAEVKKPGASVKVSCKASGYTFTDNWMGWVKQRPGQGLEWIGAIDPSDSATNYNQNFKGRVTMTVDTSISTAYMELSRLRSDDSAVYFCTRSGYYGSPKLGGDYWGQGTLVTVSS VL: EIVLTQSPSSLSASVGDRVTITCSASSSISYMHWYQQKSGTAPKLLIYSTSNLASGVPSRFSGSGSGTDFTFTISSLQPEDAATYYCHQWNSYPCTFGGGTKLEIK |  |  |  | 32.5 | 0.09 | 
hGPN18-2_H2L3 VL T102A (antibody, V domains shown) VH: QVQLVQSGPGLVQPTQTLTLTCSFSGFSLSTSVMGVGWIRQPSGKGLEWLADIWWDDDKDYNPSLKSRLTISKDTSKNQVVLTMTNMDTVDTATYYCARTYYSNYEYYGMDYWGQGTLVTVSS VL: DIVMTQSPDSLAVSLGERATINCRSSQTIILSNGNTYLEWYQQKPGQPPKLLIYKVSNRFSGVPDRFSGSGSGTDFTLTISSLQAEDVAVYYCFQGSHVPFAFGSGTKLEIKR |  |  |  |  |  | Relative binding activity [4]: 0.81; EC50 [5]: 4.73 nM
hGPN18-2_H2L3 VL Y37A (antibody, V domains shown) VH: QVQLVQSGPGLVQPTQTLTLTCSFSGFSLSTSVMGVGWIRQPSGKGLEWLADIWWDDDKDYNPSLKSRLTISKDTSKNQVVLTMTNMDTVDTATYYCARTYYSNYEYYGMDYWGQGTLVTVSS VL: DIVMTQSPDSLAVSLGERATINCRSSQTIILSNGNTALEWYQQKPGQPPKLLIYKVSNRFSGVPDRFSGSGSGTDFTLTISSLQAEDVAVYYCFQGSHVPFTFGSGTKLEIKR |  |  |  |  |  | Relative binding activity [4]: 0.37; EC50 [5]: 27.1 nM
hGPN18-2_H2L3 VL V99A (antibody, V domains shown) VH: QVQLVQSGPGLVQPTQTLTLTCSFSGFSLSTSVMGVGWIRQPSGKGLEWLADIWWDDDKDYNPSLKSRLTISKDTSKNQVVLTMTNMDTVDTATYYCARTYYSNYEYYGMDYWGQGTLVTVSS VL: DIVMTQSPDSLAVSLGERATINCRSSQTIILSNGNTYLEWYQQKPGQPPKLLIYKVSNRFSGVPDRFSGSGSGTDFTLTISSLQAEDVAVYYCFQGSHAPFTFGSGTKLEIKR |  |  |  |  |  | Relative binding activity [4]: 0.81; EC50 [5]: 9.93 nM
hGPN18-2_H2L3 VL V56A (antibody, V domains shown) VH: QVQLVQSGPGLVQPTQTLTLTCSFSGFSLSTSVMGVGWIRQPSGKGLEWLADIWWDDDKDYNPSLKSRLTISKDTSKNQVVLTMTNMDTVDTATYYCARTYYSNYEYYGMDYWGQGTLVTVSS VL: DIVMTQSPDSLAVSLGERATINCRSSQTIILSNGNTYLEWYQQKPGQPPKLLIYKASNRFSGVPDRFSGSGSGTDFTLTISSLQAEDVAVYYCFQGSHVPFTFGSGTKLEIKR |  |  |  |  |  | Relative binding activity [4]: 1.07; EC50 [5]: 2.99 nM

Further lines, with some results ahead:

Kd [1] [nM] | koff [1] [s⁻¹] | kon [1] [M⁻¹ s⁻¹] | EC50 [2] [nM] | Relative binding activity [3] | Binder | also measured
548 | 0.00436 | 7950 |  |  | hGPN18-5_H3L2 (antibody, V domains shown, humanized; also called hGPN18-5 VH3+VL2) VH: QVQLVQSGAEVKKPGASVKVSCKASGYTFTTYWMNWVRQAPGQGLEWIGAINPSNDYTEYNQKFKDRAIMTADKSTSTVYMELSSLRSEDTAVYYCGRSYSPDYWGQGTTVTVSS VL: DIQMTQSPSSLSASVGDRVTITCKASQNVDNHVAWFQQKPGKAPKALIYSASYRYSGVPDRFSGSGSGTDFTLTISSLQPEDFATYFCQQYKSYPFTFGGGTKLEIK | 
214 | 0.00153 | 7150 |  |  | hGPN18-5_H1L3 (antibody, V domains shown, humanized; also called hGPN18-5_VH1+VL3; GPN18-5-VH1+VL3) VH: QVQLVQSGAEVKKPGASVKVSCKASGYTFTTYWMNWVRQAPGQGLEWIGAINPSNDYTEYNQKFKDRVTMTADTSTSTVYMELSSLRSEDTAVYYCGRSYSPDYWGQGTTVTVSS VL: DIQMTQSPSSLSASVGDRVTITCKASQNVDNHVAWHQQKPGKAPKALIYSASYRYSGVPDRFTGSGSGTDFTLTISSLQPEDFADYFCQQYKSYPFTFGGGTKLEIK | 
661 | 0.00454 | 6870 |  |  | hGPN18-5_H2L1 (antibody, V domains shown, humanized; also called hGPN18-5_VH2+VL1) VH: QVQLVQSGAEVKKPGASVKVSCKASGYTFTTYWMNWVRQAPGQGLEWIGAINPSNDYTEYNQKFKDRATMTADTSTSTVYMELSSLRSEDTAVYYCGRSYSPDYWGQGTTVTVSS VL: DIQMTQSPSSLSASVGDRVTITCKASQNVDNHVAWFQQKPGKAPKALIYSASYRYSGVPSRFSGSGSGTDFTLTISSLQPEDFATYFCQQYKSYPFTFGGGTKLEIK | 
 |  |  | 0.515 | 1.26 | hGPN06-1_H1L1 VH D31A (antibody, V domains shown) VH: QVQLVQSGAEVKKPGASVKVSCKASGYTFTANWMGWVKQRPGQGLEWIGAIDPSDSFTNYNQNFKGRVTMTVDTSISTAYMELSRLRSDDSAVYFCTRSGYYGSPKLGGDYWGQGTLVTVSS VL: EIVLTQSPSSLSASVGDRVTITCSASSSISYMHWYQQKSGTAPKLLIYSTSNLASGVPSRFSGSGSGTDFTFTISSLQPEDAATYYCHQWNSYPCTFGGGTKLEIK | 
 |  |  | 4.8 | 0.54 | hGPN06-1_H1L1 VH F29A (antibody, V domains shown) VH: QVQLVQSGAEVKKPGASVKVSCKASGYTATDNWMGWVKQRPGQGLEWIGAIDPSDSFTNYNQNFKGRVTMTVDTSISTAYMELSRLRSDDSAVYFCTRSGYYGSPKLGGDYWGQGTLVTVSS VL: EIVLTQSPSSLSASVGDRVTITCSASSSISYMHWYQQKSGTAPKLLIYSTSNLASGVPSRFSGSGSGTDFTFTISSLQPEDAATYYCHQWNSYPCTFGGGTKLEIK | 
 |  |  | 0.448 | 1.11 | hGPN06-1_H1L1 VH F64A (antibody, V domains shown) VH: QVQLVQSGAEVKKPGASVKVSCKASGYTFTDNWMGWVKQRPGQGLEWIGAIDPSDSFTNYNQNAKGRVTMTVDTSISTAYMELSRLRSDDSAVYFCTRSGYYGSPKLGGDYWGQGTLVTVSS VL: EIVLTQSPSSLSASVGDRVTITCSASSSISYMHWYQQKSGTAPKLLIYSTSNLASGVPSRFSGSGSGTDFTFTISSLQPEDAATYYCHQWNSYPCTFGGGTKLEIK | 
